Assay results published in patent US20230374087A1, “METHOD TO IMPROVE PROTEIN QUALITY CONTROL” (The Johns Hopkins University, priority 2020, published 2023).

System: neonatal rat cardiomyocytes (NRCMs)
Description: After overnight culture, subsets of NRCMs were infected with adenovirus (AdV) containing a FLAG-tagged PDE5, FLAG control, Myc-tagged CHIP WT or K31A (provided by Dr. Cam Patterson), S20E or S20A (Welgen Inc., Worcester, MA). Forty-eight hours after infection, cells were exposed to either simulated ischemia (SI) or normal conditions. SI involved incubating cells in DMEM containing deoxyglucose (20 mM), NaCl (125 mM), KCl (8 mM), KH2PO4 (1.2 mM), MgSO4 (1.25 mM), CaCl2) (1.2 mM), NaHCO3(6.25 mM), sodium lactate (5 mM), and HEPES (20 mM) with a pH of 6.6. Cells were then placed in an incubator chamber (Billups-Rothenberg) with 95% nitrogen, 4% carbon dioxide, and 1% oxygen. Normoxic controls were incubated in DMEM supplemented with 10% FBS in air composed of 95% carbon dioxide and 5% oxygen. RNA or protein was harvested after 48 hours of SI. Cells were also treated with sildenafil (1 μM) or vehicle, or small interference RNA (siRNA, 100 pM) specific for rat Stub1 (Qiagen, Cat. #: SI01532251) or scrambled control provided 24 hours after plating and transfected with Xfect (Takara) per manufacturer protocol.
Lactate dehydrogenase (LDH) leakage and (3-[4,5-dimethylthiazol-2-yl]-2,5-diphenyltetrazolium bromide) (MTT) were assessed in cultured cardiomyocytes and media after SI from the same culture dish. LDH was assayed by commercial assay (Roche) following manufacturer's protocol, read in 96 well microplates on a Spectramax M5 (Molecular Devices) at 490 nm absorbance. For MTT, cells were washed in phosphate-buffered saline, MTT (Sigma-Aldrich) working solution added to the culture dish, incubated at 37° C., solubilized with acidic isopropanol, transferred to a 96 well plate, and read at 570 nm with background subtraction at 650 nm on a Spectramax M5.

Molecule | SI-induced cytotoxicity (LDH/MTT ratio)
S24E: S24E mutant CHIP overexpressed in neonatal myocytes (protein, UniProt Q9WUD1 1-304, looked up, variant S24E) E3 ubiquitin-protein ligase …: MKGKEEKEGGARLGTGGGGSPDKEPSAQELKEQGNRLFVGRKYPEAAACYGRAITRNPLVAVYYTNRALCYLKMQQPEQALADCRRALELDGQSVKAHFFLGQCQLEMESYDEAIANLQRAYSLAKEQRLNFGDDIPSALRIAKKKRWNSIEERRIHQESELHSYLTRLIAAERERELEECQRNHEGHEDDGHIRAQQACIEAKHDKYMADMDELFSQVDEKRKKRDIPDYLCGKISFELMREPCITPSGITYDRKDIEEHLQRVGHFDPVTRSPLTQEQLIPNLAMKEVIDAFISENGWVEDY | no significant impact on the cytotoxic response to SI or SI+SIL
S20A/S24A: S20A/S24A combination mutant CHIP (protein, UniProt Q9WUD1 1-304, looked up, variant S20A S24A) E3 ubiquitin-protein ligase …: MKGKEEKEGGARLGTGGGGAPDKAPSAQELKEQGNRLFVGRKYPEAAACYGRAITRNPLVAVYYTNRALCYLKMQQPEQALADCRRALELDGQSVKAHFFLGQCQLEMESYDEAIANLQRAYSLAKEQRLNFGDDIPSALRIAKKKRWNSIEERRIHQESELHSYLTRLIAAERERELEECQRNHEGHEDDGHIRAQQACIEAKHDKYMADMDELFSQVDEKRKKRDIPDYLCGKISFELMREPCITPSGITYDRKDIEEHLQRVGHFDPVTRSPLTQEQLIPNLAMKEVIDAFISENGWVEDY | very similar to those with S20 mutations alone
S24A: S24A mutant CHIP overexpressed in neonatal myocytes (protein, UniProt Q9WUD1 1-304, looked up, variant S24A) E3 ubiquitin-protein ligase …: MKGKEEKEGGARLGTGGGGSPDKAPSAQELKEQGNRLFVGRKYPEAAACYGRAITRNPLVAVYYTNRALCYLKMQQPEQALADCRRALELDGQSVKAHFFLGQCQLEMESYDEAIANLQRAYSLAKEQRLNFGDDIPSALRIAKKKRWNSIEERRIHQESELHSYLTRLIAAERERELEECQRNHEGHEDDGHIRAQQACIEAKHDKYMADMDELFSQVDEKRKKRDIPDYLCGKISFELMREPCITPSGITYDRKDIEEHLQRVGHFDPVTRSPLTQEQLIPNLAMKEVIDAFISENGWVEDY | no significant impact on the cytotoxic response to SI or SI+SIL
S20E/S24E: S20E/S24E combination mutant CHIP (protein, UniProt Q9WUD1 1-304, looked up, variant S20E S24E) E3 ubiquitin-protein ligase …: MKGKEEKEGGARLGTGGGGEPDKEPSAQELKEQGNRLFVGRKYPEAAACYGRAITRNPLVAVYYTNRALCYLKMQQPEQALADCRRALELDGQSVKAHFFLGQCQLEMESYDEAIANLQRAYSLAKEQRLNFGDDIPSALRIAKKKRWNSIEERRIHQESELHSYLTRLIAAERERELEECQRNHEGHEDDGHIRAQQACIEAKHDKYMADMDELFSQVDEKRKKRDIPDYLCGKISFELMREPCITPSGITYDRKDIEEHLQRVGHFDPVTRSPLTQEQLIPNLAMKEVIDAFISENGWVEDY | very similar to those with S20 mutations alone
